Usually Km stands for the substrate concentration at which the rate is half of its maximum. The term kcat denotes the number of substrate molecules converted per active site and unit of time at saturation. One may read the kcat/Km as the second-order rate constant that governs catalysis at low substrate concentration.

Data set [1] deals with T1, WT hOTC (human ornithine transcarbamylase) (Homo sapiens, UniProt P00480).
T1 sequence (P00480 33-354): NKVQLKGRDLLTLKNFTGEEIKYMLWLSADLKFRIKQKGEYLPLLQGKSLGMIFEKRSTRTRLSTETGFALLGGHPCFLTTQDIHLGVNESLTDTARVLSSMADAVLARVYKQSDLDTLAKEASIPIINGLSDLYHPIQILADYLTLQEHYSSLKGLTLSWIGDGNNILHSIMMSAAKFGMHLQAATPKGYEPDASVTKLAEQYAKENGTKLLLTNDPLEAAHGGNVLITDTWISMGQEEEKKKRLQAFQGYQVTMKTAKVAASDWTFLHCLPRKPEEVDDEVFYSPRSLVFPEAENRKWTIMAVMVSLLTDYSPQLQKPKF
The experiment in a line: differential scanning fluorimetry. The data set is classed as binding. Particulars: 4 μM enzyme; 10 mM sodium phosphate. In general terms: In DSF a fluorescence change marks the thermal transition of the protein.

Substrate in data set [2]: NC(=O)OP(=O)(O)O
The experiment in a line: discontinuous colorimetric citrulline assay, steady-state kinetics. The data set is classed as biochemical, Homo sapiens. As to conditions: co-substrate ornithine.

Take `O=P(O)(O)O` [phosphate]: in data set [1], the dTm result is listed as “The addition of phosphate generally increased the melting temperature of these variants”.

B1: WT hOTC (human ornithine transcarbamylase) (Homo sapiens) (protein)
chain: NKVQLKGRDLLTLKNFTGEEIKYMLWLSADLKFRIKQKGEYLPLLQGKSLGMIFEKRSTRTRLSTETGFALLGGHPCFLTTQDIHLGVNESLTDTARVLSSMADAVLARVYKQSDLDTLAKEASIPIINGLSDLYHPIQILADYLTLQEHYSSLKGLTLSWIGDGNNILHSIMMSAAKFGMHLQAATPKGYEPDASVTKLAEQYAKENGTKLLLTNDPLEAAHGGNVLITDTWISMGQEEEKKKRLQAFQGYQVTMKTAKVAASDWTFLHCLPRKPEEVDDEVFYSPRSLVFPEAENRKWTIMAVMVSLLTDYSPQLQKPKF
Consider B1, for which, in data set [2], the Km was 240 ± 70 µM, the kcat stood at 56 ± 9.8 s⁻¹ and the kcat/Km was 240000 ± 29000 M⁻¹ s⁻¹.
